{"source": "paper PMC8257627", "molecules": {"B1": {"name": "PZP domain of AF10 (AF10PZP, aa 19–208), wild type, O54826 D43K (protein)", "chain": "KEMIGGCCVCSDERGWAENPLVYCKGHGCSVAVHQACYGIVQVPTGPWFCRKCESQERAARVRCELCPHKDGALKRTDNGGWAHVVCALYIPEVQFANVSTMEPIVLQSVPHDRYNKTCYICDEQGRESKAATGACMTCNKHGCRQAFHVTCAQFAGLLCEEEGNGADNVQYCGYCKYHFSKLKKSKRGS"}}, "key": {"AF10PZP WT (mouse)": {"system": "AF10PZP WT (mouse)", "assay": "fluorescence polarization", "conditions": "S1/2, FP: 25 mM Tris-HCl pH 7.5, 75 mM NaCl, 0.00625% Tween20, 5 mM DTT, 5 nM NCP, NCP EMSA: 25 mM Tris pH 7.5, 75 mM NaCl, 10% glycerol, 0.005% Tween 20, 4 C, DNA …"}, "[1]": {"biological_target": "nucleosome core particle reconstituted with 207 bp DNA (NCP207) (human) (UniProt P0C0S8)", "assay": "fluorescence polarisation; 5 nM fluorescein-labelled NCP with increasing AF10PZP WT or mutants; 75 mM NaCl, 25 mM Tris-HCl pH 7.5, 0.00625% Tween20, 5 mM DTT; fit to a binding isotherm, S1/2"}, "AF10PZP D43K (mouse)": {"system": "AF10PZP D43K (mouse)", "assay": "fluorescence polarization", "conditions": "75 mM NaCl; S1/2; FP: 25 mM Tris-HCl pH 7.5, 75 mM NaCl, 0.00625% Tween20, 5 mM DTT, 5 nM NCP; NCP EMSA: 25 mM Tris pH 7.5, 75 mM NaCl, 10% glycerol, 0.005% Tween 20, 4 C; DNA …"}, "AF10PZP E179K (mouse)": {"system": "AF10PZP E179K (mouse)", "assay": "fluorescence polarization", "conditions": "75 mM NaCl; S1/2; FP: 25 mM Tris-HCl pH 7.5, 75 mM NaCl, 0.00625% Tween20, 5 mM DTT, 5 nM NCP; NCP EMSA: 25 mM Tris pH 7.5, 75 mM NaCl, 10% glycerol, 0.005% Tween 20, 4 C; DNA …"}, "[2]": {"biological_target": "nucleosome reconstituted with 147 bp 601 DNA (NCP147) (human) (UniProt P0C0S8)", "assay": "fluorescence polarisation; 5 nM fluorescein-labelled NCP with increasing AF10PZP WT or mutants; 75 mM NaCl, 25 mM Tris-HCl pH 7.5, 0.00625% Tween20, 5 mM DTT; fit to a binding isotherm, S1/2"}, "[3]": {"biological_target": "nucleosome core particle reconstituted with 207 bp DNA (NCP207), P0C0S8;P62807;Q71DI3;P62805", "assay": "fluorescence anisotropy", "conditions": "chain shown with the change"}}}
{"molecule": "207 bp 601 DNA", "values": [{"measurement": "K half", "setting": "AF10PZP WT (mouse)", "result": 8, "unit": "µM"}]}
{"molecule": "AF10PZP D43K mutant (aa 19–208) (from UniProt O54826 19-208) (domain or fragment)", "values": [{"measurement": "S1/2", "setting": "[1]", "result": 9, "unit": "µM"}]}
{"molecule": "AF10PZP E179K mutant (aa 19–208) (from UniProt O54826 19-208) (domain or fragment)", "values": [{"measurement": "S1/2", "setting": "[1]", "result": 14, "unit": "µM"}]}
{"molecule": "NCP147", "values": [{"measurement": "K half", "setting": "AF10PZP WT (mouse); 75 mM NaCl", "result": 15, "unit": "µM"}]}
{"molecule": "NCP207", "values": [{"measurement": "K half", "setting": "AF10PZP D43K (mouse)", "result": 9, "unit": "µM"}, {"measurement": "K half", "setting": "AF10PZP WT (mouse); 75 mM NaCl", "result": 6, "unit": "µM"}, {"measurement": "K half", "setting": "AF10PZP E179K (mouse)", "result": 14, "unit": "µM"}]}
{"molecule": "PZP domain of AF10 (AF10PZP, aa 19–208), wild type (from UniProt O54826 19-208) (domain or fragment)", "values": [{"measurement": "S1/2", "setting": "[1]", "result": 6, "unit": "µM"}, {"measurement": "S1/2", "setting": "[2]", "result": 15, "unit": "µM"}]}
{"molecule": "B1", "values": [{"measurement": "Kd", "setting": "[3]", "result": 9, "unit": "µM"}]}
